The source of these data is the array DNA melting data of Ke et al..

The nature of this data set: melting temperature; melt of duplexes. As to conditions: sodium 0.0675 M; strand 1 µM.
What is called Tm is the temperature at which the thermal transition is half complete. Consider “CGACGTGCATTATGTGCTG+CAGCACATTTCGCACGTCG ((((((((...((((((((+))))))))...))))))))”, for which the midpoint of thermal melting (Tm) stood at 48.3 °C.

For “CGACGTGCCCTATGTGCTG+CAGCACATCGCGCACGTCG ((((((((.(.((((((((+)))))))).).))))))))”, the Tm worked out at 48.1 °C.

In the case of “CGACGTGCGTGATGTGCTG+CAGCACATGCAGCACGTCG ((((((((...((((((((+))))))))...))))))))”, the Tm stood at 54.1 °C.

Take “CGACGTGCGGTATGTGCTG+CAGCACATTGTGCACGTCG ((((((((...((((((((+))))))))...))))))))”: the Tm is 47.2 °C.

For “CGACGTGCACAATGTGCTG+CAGCACATCAAGCACGTCG ((((((((...((((((((+))))))))...))))))))”, the Tm was 46.2 °C.

In the case of “CGACGTGCGATATGTGCTG+CAGCACATTATGCACGTCG ((((((((...((((((((+))))))))...))))))))”, the Tm was 52.2 °C.

“CGACGTGCTCTATGTGCTG+CAGCACATGCCGCACGTCG ((((((((...((((((((+))))))))...))))))))”: the Tm came to 48.2 °C.

For the substance “CGACGTGCGCGATGTGCTG+CAGCACATGTTGCACGTCG ((((((((...((((((((+))))))))...))))))))”, the Tm is 50.5 °C.

As for “CGACGTGCCGGATGTGCTG+CAGCACATCAAGCACGTCG ((((((((..(((((((((+)))))))))..))))))))”, the melting temperature (Tm) was found to be 54.8 °C.

Consider “CGACGTGCCCCATGTGCTG+CAGCACATTAGGCACGTCG (((((((((..((((((((+))))))))..)))))))))”, for which the Tm is 52.5 °C.

On to “CGACGTGCGACATGTGCTG+CAGCACATTCTGCACGTCG ((((((((...((((((((+))))))))...))))))))”, for which the Tm amounted to 51.3 °C.

For the substance “CGACGTGCCCCATGTGCTG+CAGCACATGATGCACGTCG ((((((((..(((((((((+)))))))))..))))))))”, the Tm was 51.8 °C.

Regarding “CGACGTGCTCCATGTGCTG+CAGCACATTTGGCACGTCG ((((((((...((((((((+))))))))...))))))))”, the Tm is 48.3 °C.

Regarding “CGACGTGCCCCATGTGCTG+CAGCACATACAGCACGTCG ((((((((...((((((((+))))))))...))))))))”, the Tm is 47.1 °C.

Turning to “CGACGTGCGATATGTGCTG+CAGCACATCAGGCACGTCG ((((((((...((((((((+))))))))...))))))))”, the Tm amounted to 49.5 °C.

“CGACGTGCGACATGTGCTG+CAGCACATGCTGCACGTCG ((((((((..(((((((((+)))))))))..))))))))”: the Tm was 54.7 °C.

Take “CGACGTGCGGAATGTGCTG+CAGCACATAATGCACGTCG ((((((((...((((((((+))))))))...))))))))”: the Tm was 52 °C.

In the case of “CGACGTGCAGAATGTGCTG+CAGCACATGATGCACGTCG (((((((((..((((((((+))))))))..)))))))))”, the midpoint of thermal melting (Tm) was determined as 57.9 °C.

With “CGACGTGCTAAATGTGCTG+CAGCACATGACGCACGTCG ((((((((...((((((((+))))))))...))))))))”, the Tm worked out at 50.2 °C.

Consider “CGACGTGCAAAATGTGCTG+CAGCACATTCAGCACGTCG ((((((((..(((((((((+)))))))))..))))))))”, for which the Tm stood at 52.1 °C.

Regarding “CGACGTGCCTTATGTGCTG+CAGCACATCGAGCACGTCG ((((((((...((((((((+))))))))...))))))))”, the Tm was determined as 48.3 °C.

With “CGACGTGCAGGATGTGCTG+CAGCACATGACGCACGTCG ((((((((...((((((((+))))))))...))))))))”, the Tm was 47.3 °C.

As for “CGACGTGCGCAATGTGCTG+CAGCACATGCAGCACGTCG ((((((((...((((((((+))))))))...))))))))”, the midpoint of thermal melting (Tm) was 57.9 °C.

As to “CGACGTGCGCGATGTGCTG+CAGCACATTCAGCACGTCG ((((((((...((((((((+))))))))...))))))))”, the Tm came out at 51.7 °C.

With “CGACGTGCAGAATGTGCTG+CAGCACATCCAGCACGTCG ((((((((.(.((((((((+)))))))).).))))))))”, the midpoint of thermal melting (Tm) worked out at 51.6 °C.

“CGACGTGCGTCATGTGCTG+CAGCACATATTGCACGTCG ((((((((...((((((((+))))))))...))))))))”: the Tm was 49.2 °C.

In the case of “CGACGTGCACTATGTGCTG+CAGCACATGATGCACGTCG (((((((((..((((((((+))))))))..)))))))))”, the melting temperature (Tm) was 48.8 °C.

For “CGACGTGCCTCATGTGCTG+CAGCACATAGCGCACGTCG ((((((((...((((((((+))))))))...))))))))”, the melting temperature (Tm) came to 49.6 °C.

With “CGACGTGCATGATGTGCTG+CAGCACATTTCGCACGTCG ((((((((...((((((((+))))))))...))))))))”, the Tm amounted to 48.7 °C.

With “CGACGTGCAGAATGTGCTG+CAGCACATATTGCACGTCG (((((((((..((((((((+))))))))..)))))))))”, the melting temperature (Tm) came to 50.5 °C.

As to “CGACGTGCTTCATGTGCTG+CAGCACATTGTGCACGTCG ((((((((...((((((((+))))))))...))))))))”, the midpoint of thermal melting (Tm) turned out to be 44.4 °C.

Take “CGACGTGCTCGATGTGCTG+CAGCACATCTTGCACGTCG ((((((((..(((((((((+)))))))))..))))))))”: the Tm worked out at 53.3 °C.

Turning to “CGACGTGCCCAATGTGCTG+CAGCACATCTGGCACGTCG (((((((((..((((((((+))))))))..)))))))))”, the midpoint of thermal melting (Tm) came to 53.8 °C.

As to “CGACGTGCTCGATGTGCTG+CAGCACATTTCGCACGTCG ((((((((...((((((((+))))))))...))))))))”, the Tm came to 48.1 °C.

With “CGACGTGCGCTATGTGCTG+CAGCACATCCAGCACGTCG ((((((((...((((((((+))))))))...))))))))”, the Tm was 49.8 °C.

Turning to “CGACGTGCGTGATGTGCTG+CAGCACATCATGCACGTCG ((((((((.((((((((((+)))))))))).))))))))”, the Tm worked out at 60.2 °C.

For the substance “CGACGTGCCCAATGTGCTG+CAGCACATCAGGCACGTCG (((((((((..((((((((+))))))))..)))))))))”, the melting temperature (Tm) came out at 53.9 °C.

Turning to “CGACGTGCTCCATGTGCTG+CAGCACATATTGCACGTCG ((((((((...((((((((+))))))))...))))))))”, the Tm worked out at 47.9 °C.

Regarding “CGACGTGCGCTATGTGCTG+CAGCACATTTGGCACGTCG ((((((((...((((((((+))))))))...))))))))”, the midpoint of thermal melting (Tm) stood at 49.2 °C.

As to “CGACGTGCCCTATGTGCTG+CAGCACATCTAGCACGTCG ((((((((...((((((((+))))))))...))))))))”, the Tm was found to be 48 °C.

For the substance “CGACGTGCATTATGTGCTG+CAGCACATGCAGCACGTCG ((((((((...((((((((+))))))))...))))))))”, the Tm was found to be 48.7 °C.

“CGACGTGCGCGATGTGCTG+CAGCACATGATGCACGTCG ((((((((...((((((((+))))))))...))))))))”: the Tm was found to be 51 °C.

Turning to “CGACGTGCCATATGTGCTG+CAGCACATACTGCACGTCG ((((((((..(((((((((+)))))))))..))))))))”, the Tm was found to be 49.3 °C.

For the substance “CGACGTGCGACATGTGCTG+CAGCACATTTAGCACGTCG ((((((((.(.((((((((+)))))))).).))))))))”, the Tm amounted to 52.2 °C.

For the substance “CGACGTGCTTCATGTGCTG+CAGCACATCTGGCACGTCG ((((((((...((((((((+))))))))...))))))))”, the Tm was 48.9 °C.

Regarding “CGACGTGCCCCATGTGCTG+CAGCACATTACGCACGTCG ((((((((...((((((((+))))))))...))))))))”, the Tm turned out to be 54.6 °C.

Turning to “CGACGTGCCCGATGTGCTG+CAGCACATAGTGCACGTCG ((((((((.(.((((((((+)))))))).).))))))))”, the Tm was 48 °C.

As to “CGACGTGCTTAATGTGCTG+CAGCACATGGTGCACGTCG ((((((((...((((((((+))))))))...))))))))”, the Tm turned out to be 50.3 °C.

Turning to “CGACGTGCCGTATGTGCTG+CAGCACATTTGGCACGTCG (((((((((..((((((((+))))))))..)))))))))”, the Tm turned out to be 55.2 °C.

In the case of “CGACGTGCCTAATGTGCTG+CAGCACATCGTGCACGTCG ((((((((...((((((((+))))))))...))))))))”, the midpoint of thermal melting (Tm) is 43.1 °C.

With “CGACGTGCGTGATGTGCTG+CAGCACATCAGGCACGTCG ((((((((.((((((((((+)))))))))).))))))))”, the Tm came out at 59.6 °C.

Consider “CGACGTGCCGGATGTGCTG+CAGCACATATGGCACGTCG (((((((((..((((((((+))))))))..)))))))))”, for which the melting temperature (Tm) was 57.2 °C.

As for “CGACGTGCCTCATGTGCTG+CAGCACATTTCGCACGTCG ((((((((...((((((((+))))))))...))))))))”, the Tm worked out at 46.5 °C.

Consider “CGACGTGCTTTATGTGCTG+CAGCACATATGGCACGTCG ((((((((..(((((((((+)))))))))..))))))))”, for which the Tm amounted to 51.6 °C.

Regarding “CGACGTGCCTCATGTGCTG+CAGCACATATTGCACGTCG ((((((((...((((((((+))))))))...))))))))”, the melting temperature (Tm) worked out at 46.7 °C.

For “CGACGTGCGAGATGTGCTG+CAGCACATACAGCACGTCG ((((((((...((((((((+))))))))...))))))))”, the Tm amounted to 52.6 °C.

“CGACGTGCGGTATGTGCTG+CAGCACATGATGCACGTCG ((((((((...((((((((+))))))))...))))))))”: the Tm turned out to be 52.2 °C.

As for “CGACGTGCGACATGTGCTG+CAGCACATCCGGCACGTCG ((((((((...((((((((+))))))))...))))))))”, the melting temperature (Tm) was 48.9 °C.

On to “CGACGTGCCTAATGTGCTG+CAGCACATTTGGCACGTCG (((((((((.(((((((((+))))))))).)))))))))”, for which the Tm worked out at 58.7 °C.

For the substance “CGACGTGCTTTATGTGCTG+CAGCACATCTTGCACGTCG ((((((((...((((((((+))))))))...))))))))”, the Tm turned out to be 48.5 °C.

Consider “CGACGTGCAGGATGTGCTG+CAGCACATAATGCACGTCG (((((((((..((((((((+))))))))..)))))))))”, for which the Tm worked out at 55.2 °C.

Consider “CGACGTGCCGGATGTGCTG+CAGCACATTGTGCACGTCG ((((((((...((((((((+))))))))...))))))))”, for which the Tm came out at 47.3 °C.

With “CGACGTGCTCAATGTGCTG+CAGCACATCCAGCACGTCG (((((((((..((((((((+))))))))..)))))))))”, the Tm stood at 50.5 °C.

Consider “CGACGTGCCGAATGTGCTG+CAGCACATACGGCACGTCG ((((((((((.((((((((+)))))))).))))))))))”, for which the Tm was 60.1 °C.

For the substance “CGACGTGCGTTATGTGCTG+CAGCACATTCTGCACGTCG ((((((((...((((((((+))))))))...))))))))”, the Tm stood at 50 °C.

In the case of “CGACGTGCTGGATGTGCTG+CAGCACATTCAGCACGTCG ((((((((((.((((((((+)))))))).))))))))))”, the Tm is 60 °C.
